This passage reports Kd results from US20260234251A1 (IMNOTECH, published 2026).

This assay concerns the target T1, human CD2 (cluster of differentiation 2) (human, UniProt P06729 25-351).
T1 construct: Presented on cells: human CD8+ T cells, CD2-transduced U698M B-cell lymphoma cells, Jurkat cells and human PBMCs; also called CD2 target antigen; CD2 surface marker
T1 sequence: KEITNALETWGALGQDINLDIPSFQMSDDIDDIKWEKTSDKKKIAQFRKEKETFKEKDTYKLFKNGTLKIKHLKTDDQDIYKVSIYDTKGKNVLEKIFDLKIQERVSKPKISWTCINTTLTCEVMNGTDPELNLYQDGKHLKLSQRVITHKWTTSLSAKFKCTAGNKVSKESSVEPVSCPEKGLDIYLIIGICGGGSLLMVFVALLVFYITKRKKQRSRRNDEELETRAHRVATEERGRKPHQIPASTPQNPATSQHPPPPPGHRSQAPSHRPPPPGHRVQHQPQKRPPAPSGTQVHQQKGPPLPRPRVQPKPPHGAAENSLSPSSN
Nature of the assay: flow cytometry titration on human CD8+ T cells, one-site specific binding fit, triplicates. The protocol:
Determined affinity binding curves for CD2-sdAb (B) at different concentrations on human CD8+ T cells. R3b23-sdAb served as a negative control for unspecific binding (A). Binding of CD2-sdAb (B) is shown as a fraction of the maximum specific binding (Bₘₐₓ) and the binding intensity of R3b23-sdAb (A) is shown via the MFI at the different concentrations. Measurements were performed in triplicates and data is depicted on a semi-logarithmic scale. The dissociation constant (Ko) for CD2 was calculated based of one-site specific binding and is 2.3×10⁻⁹ [M].

B1: anti-CD2 single domain antibody according to SEQ ID No. 18 (VHH)
VHH: QVQLQESGGGSVQPGGSLRLSCTVSGRTFSNYAVGWFRQAPGKEREFVATITGSGTAYADSVKGRFTISRDNAKNTVYLQMNSLKPEDTAVYYCAATWSSGYTFRSPTQYDYWGQGTQVTVSS
notes: also called CD2-sdAb; anti-CD2-sdAb
As to B1, binding was put at a Kd of 2.3 nM.
